From PMC12769810, “Structure and substrate promiscuity of Campylobacter jejuni periplasmic nitrate reductase (Nap) and phylogenetic analysis of Nap homologs” (The Journal of Biological Chemistry, 2025)

Tests used:
[1] = target: T1, CjNapA (WT NapA) (Campylobacter jejuni, UniProt Q9PPD9); assay: cryo-EM structure, […] Å; assay type: binding; conditions: coordinated by Cys42, Cys45, Cys49, Cys77
T1 construct: recombinant catalytic subunit NapA without NapB; native N-terminal TAT signal peptide replaced by that of E. coli; 889 residues modelled by cryo-EM
T1 sequence (Q9PPD9 31-924): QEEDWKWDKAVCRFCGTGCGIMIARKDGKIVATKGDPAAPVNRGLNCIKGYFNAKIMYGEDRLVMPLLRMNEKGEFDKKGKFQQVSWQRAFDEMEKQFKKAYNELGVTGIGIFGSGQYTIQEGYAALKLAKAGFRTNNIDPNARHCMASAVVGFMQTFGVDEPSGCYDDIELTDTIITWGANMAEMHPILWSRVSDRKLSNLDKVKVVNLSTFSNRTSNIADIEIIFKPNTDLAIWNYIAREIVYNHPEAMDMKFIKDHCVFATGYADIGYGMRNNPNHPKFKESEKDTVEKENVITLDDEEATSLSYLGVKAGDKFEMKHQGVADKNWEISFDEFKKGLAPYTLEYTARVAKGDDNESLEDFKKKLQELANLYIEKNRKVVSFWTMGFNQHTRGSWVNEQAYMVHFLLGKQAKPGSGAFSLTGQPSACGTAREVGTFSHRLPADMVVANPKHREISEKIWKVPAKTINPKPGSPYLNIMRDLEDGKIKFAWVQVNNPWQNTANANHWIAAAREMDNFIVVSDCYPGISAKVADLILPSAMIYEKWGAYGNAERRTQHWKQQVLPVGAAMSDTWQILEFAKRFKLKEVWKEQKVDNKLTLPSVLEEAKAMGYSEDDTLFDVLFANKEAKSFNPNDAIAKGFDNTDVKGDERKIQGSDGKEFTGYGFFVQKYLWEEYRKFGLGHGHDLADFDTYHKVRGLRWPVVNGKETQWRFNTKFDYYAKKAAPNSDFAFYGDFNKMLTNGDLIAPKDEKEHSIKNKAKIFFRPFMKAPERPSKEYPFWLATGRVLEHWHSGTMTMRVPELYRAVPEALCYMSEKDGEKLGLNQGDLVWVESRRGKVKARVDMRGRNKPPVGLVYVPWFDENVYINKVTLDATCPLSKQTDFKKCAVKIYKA

[2] = target: T1, CjNapA (WT NapA); assay: steady-state nitrate reductase assay, reduced methyl viologen oxidation, double-reciprocal plot; assay type: biochemical
[3] = tested on: [O-][Cl+2]([O-])O; assay: purified protein; assay type: biochemical, Campylobacter jejuni; conditions: reduced methyl viologen, 50 mM HEPES pH 7, room temperature, argon glove box, 67 nM enzyme
[4] = tested on: [O-][Cl+3]([O-])([O-])O; assay: purified protein; assay type: biochemical, Campylobacter jejuni; conditions: reduced methyl viologen, 50 mM HEPES pH 7, room temperature, argon glove box, 67 nM enzyme, corrected for background oxidation

[S]12[Fe]3[S]4[Fe]1[S]1[Fe]2[S]3[Fe]41 [[4Fe4S] cluster]
cryo-EM structure, 3.04 Å [1]: NapA has a [4Fe4S] cluster, which is located closer to the surface of the protein

[O-][Cl+3]([O-])([O-])O [perchlorate]
Ki [2]: 4.7 ± 0.3 mM

CjNapA (WT NapA) (Campylobacter jejuni subsp. jejuni NCTC 11168 = ATCC 700819)
Km [3]: 0.968 ± 0.093 mM | kcat [3]: 2.13 ± 0.04 s⁻¹ | kcat/Km [3]: 2200 M⁻¹ s⁻¹ | Km [4]: 22.907 ± 3.132 mM | kcat [4]: 2.52 ± 0.07 s⁻¹ | kcat/Km [4]: 100 M⁻¹ s⁻¹
